Assays:
NCC(=O)O = experiment: purified protein; conditions: Na+ primary substrate (S1) binding site, near F259 and I359
C[C@H](N)C(=O)O = experiment: purified protein; conditions: Na+ primary substrate (S1) binding site, W259

LeuT (Aquifex aeolicus VF5) gave a Km (NCC(=O)O) of 1.2 ± 0.2 µM.

Work on LeuT (Aquifex aeolicus VF5; F259W) yielded a Km (C[C@H](N)C(=O)O) of 3.7 ± 0.9 µM.
